B1: Hemojuvelin (Homo sapiens), Q6ZVN8-1 (parent)
chain: MGEPGQSPSPRSSHGSPPTLSTLTLLLLLCGHAHSQCKILRCNAEYVSSTLSLRGGGSSGALRGGGGGGRGGGVGSGGLCRALRSYALCTRRTARTCRGDLAFHSAVHGIEDLMIQHNCSRQGPTAPPPPRGPALPGAGSGLPAPDPCDYEGRFSRLHGRPPGFLHCASFGDPHVRSFHHHFHTCRVQGAWPLLDNDFLFVQATSSPMALGANATATRKLTIIFKNMQECIDQKVYQAEVDNLPVAFEDGSINGGDRPGGSSLSIQTANPGNHVEIQAAYIGTTIIIRQTAGQLSFSIKVAEDVAMAFSAEQDLQLCVGGCPPSQRLSRSERNRRGAITIDTARRLCKEGLPVEDAYFHSCVFDVLISGDPNFTVAAQAALEDARAFLPDLEKLHLFPSDAGVPLSSATLLAPLLSGLFVLWLCIQ
partner: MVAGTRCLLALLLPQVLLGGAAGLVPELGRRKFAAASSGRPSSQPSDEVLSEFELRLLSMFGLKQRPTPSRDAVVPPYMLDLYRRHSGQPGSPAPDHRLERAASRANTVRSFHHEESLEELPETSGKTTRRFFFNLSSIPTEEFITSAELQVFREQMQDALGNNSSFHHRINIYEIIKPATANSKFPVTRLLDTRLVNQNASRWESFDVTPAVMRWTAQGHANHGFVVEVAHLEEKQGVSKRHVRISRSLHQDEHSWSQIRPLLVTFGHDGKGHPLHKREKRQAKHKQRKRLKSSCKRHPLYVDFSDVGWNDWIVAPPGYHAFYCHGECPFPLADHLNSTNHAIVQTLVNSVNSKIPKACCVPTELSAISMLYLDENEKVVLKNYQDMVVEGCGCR
B2: Repulsive guidance molecule B (Homo sapiens), Q6NW40 (parent)
chain: MGLRAAPSSAAAAAAEVEQRRSPGLCPPPLELLLLLLFSLGLLHAGDCQQPAQCRIQKCTTDFVSLTSHLNSAVDGFDSEFCKALRAYAGCTQRTSKACRGNLVYHSAVLGISDLMSQRNCSKDGPTSSTNPEVTHDPCNYHSHAGAREHRRGDQNPPSYLFCGLFGDPHLRTFKDNFQTCKVEGAWPLIDNNYLSVQVTNVPVVPGSSATATNKITIIFKAHHECTDQKVYQAVTDDLPAAFVDGTTSGGDSDAKSLRIVERESGHYVEMHARYIGTTVFVRQVGRYLTLAIRMPEDLAMSYEESQDLQLCVNGCPLSERIDDGQGQVSAILGHSLPRTSLVQAWPGYTLETANTQCHEKMPVKDIYFQSCVFDLLTTGDANFTAAAHSALEDVEALHPRKERWHIFPSSGNGTPRGGSDLSVSLGLTCLILIVFL
partner: B1 partner

Variants of: B1
Conditions: with bmp2_human BMP2, P12643
In the case of MGEPGQSPSPRSSHGSPPTLSTLTLLLLLCGHAHSQCKILRCNAEYVSSTLSLRGGGSSGALRGGGGGGRGGGVGSGGLCRALRSYALCTRRTARTCRRDLAFHSAVHGIEDLMIQHNCSRQGPTAPPPPRGPALPGAGSGLPAPDPCDYEGRFSRLHGRPPGFLHCASFGDPHVRSFHHHFHTCRVQGAWPLLDNDFLFVQATSSPMALGANATATRKLTIIFKNMQECIDQKVYQAEVDNLPVAFEDGSINGGDRPGGSSLSIQTANPGNHVEIQAAYIGTTIIIRQTAGQLSFSIKVAEDVAMAFSAEQDLQLCVGGCPPSQRLSRSERNRRGAITIDTARRLCKEGLPVEDAYFHSCVFDVLISGDPNFTVAAQAALEDARAFLPDLEKLHLFPSDAGVPLSSATLLAPLLSGLFVLWLCIQ [G99R], the “effect of a mutation on the interaction” value is reported as “decreasing interaction strength”.
With MGEPGQSPSPRSSHGSPPTLSTLTLLLLLCGHAHSQCKILRCNAEYVSSTLSLRGGGSSGALRGGGGGGRGGGVGSGGLCRALRSYALCTRRTARTCRGDPAFHSAVHGIEDLMIQHNCSRQGPTAPPPPRGPALPGAGSGLPAPDPCDYEGRFSRLHGRPPGFLHCASFGDPHVRSFHHHFHTCRVQGAWPLLDNDFLFVQATSSPMALGANATATRKLTIIFKNMQECIDQKVYQAEVDNLPVAFEDGSINGGDRPGGSSLSIQTANPGNHVEIQAAYIGTTIIIRQTAGQLSFSIKVAEDVAMAFSAEQDLQLCVGGCPPSQRLSRSERNRRGAITIDTARRLCKEGLPVEDAYFHSCVFDVLISGDPNFTVAAQAALEDARAFLPDLEKLHLFPSDAGVPLSSATLLAPLLSGLFVLWLCIQ [L101P] the “effect of a mutation on the interaction” value was “decreasing interaction strength”.

Variants of: B2
Conditions: with bmp2_human BMP2, P12643
For MGLRAAPSSAAAAAAEVEQRRSPGLCPPPLELLLLLLFSLGLLHAGDCQQPAQCRIQKCTTDFVSLTSHLNSAVDGFDSEFCKALRAYAGCTQRTSKACRGNLVYRSAVLGISDLMSQRNCSKDGPTSSTNPEVTHDPCNYHSHAGAREHRRGDQNPPSYLFCGLFGDPHLRTFKDNFQTCKVEGAWPLIDNNYLSVQVTNVPVVPGSSATATNKITIIFKAHHECTDQKVYQAVTDDLPAAFVDGTTSGGDSDAKSLRIVERESGHYVEMHARYIGTTVFVRQVGRYLTLAIRMPEDLAMSYEESQDLQLCVNGCPLSERIDDGQGQVSAILGHSLPRTSLVQAWPGYTLETANTQCHEKMPVKDIYFQSCVFDLLTTGDANFTAAAHSALEDVEALHPRKERWHIFPSSGNGTPRGGSDLSVSLGLTCLILIVFL [H106R], the “effect of a mutation on the interaction” value was “decreasing interaction strength”.
